# Laboratory results taken from paper PMC10397247.
# Where two headings read alike, the source gives them in different places.
# T1: 4H3340-AA
# T1 chain: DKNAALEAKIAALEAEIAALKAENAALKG
# T2: 4H2592-AA
# T2 chain: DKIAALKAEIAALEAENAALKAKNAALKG
# T3: 4H452-AA
# T3 chain: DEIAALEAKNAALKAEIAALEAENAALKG
# T4: 4H56-AA
# T4 chain: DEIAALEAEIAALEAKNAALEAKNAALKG
# T5: 4H2774-AA
# T5 chain: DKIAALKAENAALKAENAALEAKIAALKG
# T6: 4H2611-AA
# T6 chain: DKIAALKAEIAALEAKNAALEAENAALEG
# T7: 4H406-AA
# T7 chain: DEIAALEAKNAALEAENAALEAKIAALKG
# T8: 4H3381-AA
# T8 chain: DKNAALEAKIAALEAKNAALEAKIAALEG
# T9: 4H3438-AA
# T9 chain: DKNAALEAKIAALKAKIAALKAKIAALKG
# T10: 4H2931-AA
# T10 chain: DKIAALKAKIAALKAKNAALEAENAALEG
# T11: 4H3001-AA
# T11 chain: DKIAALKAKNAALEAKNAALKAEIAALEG
# T12: 4H3493-AA
# T12 chain: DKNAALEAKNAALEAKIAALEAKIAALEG
# T13: 4H_APH
# T13 chain: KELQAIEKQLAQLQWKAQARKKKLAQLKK
# T14: 4H_BCR
# T14 chain: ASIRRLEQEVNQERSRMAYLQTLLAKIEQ
# T15: 4H376-AA
# T15 chain: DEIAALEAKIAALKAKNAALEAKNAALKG
# T16: 4H963-AA
# T16 chain: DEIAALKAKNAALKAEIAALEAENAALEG
# T17: 4H688-AA
# T17 chain: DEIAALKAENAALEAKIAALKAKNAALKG
# T18: 4H347-AA
# T18 chain: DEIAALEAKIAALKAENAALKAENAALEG
# T19: 4H2732-AA
# T19 chain: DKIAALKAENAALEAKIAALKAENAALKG
# T20: 4H3015-AA
# T20 chain: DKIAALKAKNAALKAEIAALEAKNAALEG
# T21: 4H3073-AA
# T21 chain: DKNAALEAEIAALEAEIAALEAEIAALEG
# T22: 4H2907-AA
# T22 chain: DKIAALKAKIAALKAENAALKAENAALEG
# T23: 4H3133-AA
# T23 chain: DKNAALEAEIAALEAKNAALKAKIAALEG
# T24: 4H3697-AA
# T24 chain: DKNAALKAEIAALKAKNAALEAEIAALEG
# T25: 4H3162-AA
# T25 chain: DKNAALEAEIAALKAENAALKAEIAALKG
# T26: 4H3413-AA
# T26 chain: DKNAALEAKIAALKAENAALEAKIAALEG
# T27: 4H3588-AA
# T27 chain: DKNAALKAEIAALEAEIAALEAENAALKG
# T28: 4H3718-AA
# T28 chain: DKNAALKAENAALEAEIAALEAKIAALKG
# T29: 4H697-AA
# T29 chain: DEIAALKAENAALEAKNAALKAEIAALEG
# T30: 4H340-AA
# T30 chain: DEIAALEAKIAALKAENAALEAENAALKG
# T31: 4H3865-AA
# T31 chain: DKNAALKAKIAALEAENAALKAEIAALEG
# T32: 4H982-AA
# T32 chain: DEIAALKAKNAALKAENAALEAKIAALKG
# T33: 4H3606-AA
# T33 chain: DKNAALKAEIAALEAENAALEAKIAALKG
# T34: 4H32-AA
# T34 chain: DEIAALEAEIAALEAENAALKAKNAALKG
# T35: 4H384-AA
# T35 chain: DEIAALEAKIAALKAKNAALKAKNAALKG
# T36: 4H2620-AA
# T36 chain: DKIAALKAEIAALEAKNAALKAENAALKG
# T37: 4H3631-AA
# T37 chain: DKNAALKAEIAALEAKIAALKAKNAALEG
# T38: 4H3056-AA
# T38 chain: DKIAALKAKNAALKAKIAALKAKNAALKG
# T39: 4H2648-AA
# T39 chain: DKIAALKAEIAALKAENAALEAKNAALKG
# T40: 4H3378-AA
# T40 chain: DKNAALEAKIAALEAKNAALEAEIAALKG
# Legend:
# Assay in all cases: two-hybrid library CCmax;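 note: natural log of median RNA to DNA barcode read ratio; higher means stronger binding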
# [1] = molecular target: T1, 4H3340-AA; conditions: mean of both orientations
# [2] = molecular target: T2, 4H2592-AA
# [3] = molecular target: T3, 4H452-AA; conditions: mean of both orientations
# [4] = molecular target: T4, 4H56-AA; conditions: mean of both orientations
# [5] = molecular target: T5, 4H2774-AA; conditions: mean of both orientations
# [6] = molecular target: T6, 4H2611-AA
# [7] = molecular target: T7, 4H406-AA; conditions: mean of both orientations
# [8] = molecular target: GCN2_T
# [9] = molecular target: T8, 4H3381-AA; conditions: mean of both orientations
# [10] = molecular target: T9, 4H3438-AA; conditions: mean of both orientations
# [11] = molecular target: T10, 4H2931-AA; conditions: mean of both orientations
# [12] = molecular target: T11, 4H3001-AA; conditions: mean of both orientations
# [13] = molecular target: T12, 4H3493-AA; conditions: mean of both orientations
# [14] = molecular target: T13, 4H_APH; conditions: mean of both orientations
# [15] = molecular target: 4H_GCN4
# [16] = molecular target: T14, 4H_BCR; conditions: mean of both orientations
# [17] = molecular target: T15, 4H376-AA; conditions: mean of both orientations
# [18] = molecular target: T16, 4H963-AA; conditions: mean of both orientations
# [19] = molecular target: T17, 4H688-AA; conditions: mean of both orientations
# [20] = molecular target: T18, 4H347-AA; conditions: mean of both orientations
# [21] = molecular target: T19, 4H2732-AA; conditions: mean of both orientations
# [22] = molecular target: T20, 4H3015-AA; conditions: mean of both orientations
# [23] = molecular target: T21, 4H3073-AA; conditions: mean of both orientations
# [24] = molecular target: T22, 4H2907-AA; conditions: mean of both orientations
# [25] = molecular target: T23, 4H3133-AA; conditions: mean of both orientations
# [26] = molecular target: T24, 4H3697-AA; conditions: mean of both orientations
# [27] = molecular target: T25, 4H3162-AA; conditions: mean of both orientations
# [28] = molecular target: T26, 4H3413-AA; conditions: mean of both orientations
# [29] = molecular target: T27, 4H3588-AA; conditions: mean of both orientations
# [30] = molecular target: T28, 4H3718-AA; conditions: mean of both orientations
# [31] = molecular target: T29, 4H697-AA
# [32] = molecular target: T30, 4H340-AA; conditions: mean of both orientations
# [33] = molecular target: T31, 4H3865-AA
# [34] = molecular target: T32, 4H982-AA; conditions: mean of both orientations
# [35] = molecular target: T33, 4H3606-AA; conditions: mean of both orientations
# [36] = molecular target: T34, 4H32-AA; conditions: mean of both orientations
# [37] = molecular target: T35, 4H384-AA; conditions: mean of both orientations
# [38] = molecular target: T36, 4H2620-AA; conditions: mean of both orientations
# [39] = molecular target: T37, 4H3631-AA; conditions: mean of both orientations
# [40] = molecular target: T38, 4H3056-AA; conditions: mean of both orientations
# [41] = molecular target: T39, 4H2648-AA; conditions: mean of both orientations
# [42] = molecular target: T40, 4H3378-AA; conditions: mean of both orientations
# Chain of 4H_GCN4 (chain, as listed by the source): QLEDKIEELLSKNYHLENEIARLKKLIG
binder,measurement,setting,value
DKIAALKAEIAALEAENAALKAKNAALKG [4H2592-AA],interaction score,[1],0.143
same,interaction score,[2],1.34
same,interaction score,[3],-0.641
same,interaction score,[4],-0.726
same,interaction score,[5],0.283
same,interaction score,[6]; mean of both orientations,0.971
same,interaction score,[7],-1.19
same,interaction score,[8],-1.04
same,interaction score,[9],-1.72
same,interaction score,[10],-0.819
same,interaction score,[11],1.75
same,interaction score,[12],-1.68
same,interaction score,[13],-1.21
same,interaction score,[14],-1.66
same,interaction score,[15],-1.33
same,interaction score,[16],-1.75
same,interaction score,[17],0.226
same,interaction score,[18],-0.435
same,interaction score,[19],-1.42
same,interaction score,[20],1.59
same,interaction score,[21],0.248
same,interaction score,[22],-1.39
same,interaction score,[23],-0.000754
DKIAALKAEIAALEAKNAALEAENAALEG [4H2611-AA],interaction score,[1],-1.49
same,interaction score,[24],-1.28
same,interaction score,[25],-1.77
same,interaction score,[26],-2.02
same,interaction score,[27],-1.57
same,interaction score,[5],-1.54
same,interaction score,[28],-1.32
same,interaction score,[6],-1.29
same,interaction score,[29],-1.55
same,interaction score,[30],-0.987
same,interaction score,[7],-1.29
same,interaction score,[9],-1.73
same,interaction score,[31],-2.17
same,interaction score,[32],1.81
same,interaction score,[33],-1.39
same,interaction score,[12],-1.69
same,interaction score,[34],-1.45
same,interaction score,[35],-1.56
same,interaction score,[36],1.56
same,interaction score,[13],-1.87
same,interaction score,[37],2.04
same,interaction score,[38],0.167
same,interaction score,[39],-0.311
same,interaction score,[40],-1.57
same,interaction score,[17],1.87
same,interaction score,[18],-1.66
same,interaction score,[19],-1.66
same,interaction score,[20],-0.637
same,interaction score,[41],1.2
same,interaction score,[42],-2.55
